Positions count from the first letter of the chain named.
Key:
[1] = molecular target: T1, human claudin 18 splice variant 2 (CLDN18.2) (human); assay: flow cytometry, HEK293 cells stably expressing CLDN18.2; APC-conjugated secondary antibody; binding assay 1
T1 construct: also called claudin 18 isotype 2

[2] = molecular target: T1, human claudin 18 splice variant 2 …; assay: cell-based or functional assay
[3] = molecular target: T1, human claudin 18 splice variant 2 …; assay: cell-based or functional assay; remark: listed apart in the source
[4] = molecular target: T1, human claudin 18 splice variant 2 …; assay: flow cytometry on NUGC-4 10cF7-5 sort 3a cells (endogenous CLDN18.2), second assay
[5] = molecular target: T1, human claudin 18 splice variant 2 …; assay: flow cytometry on BxPC-3~CLDN18.2 cells, second assay
[6] = molecular target: T1, human claudin 18 splice variant 2 …; assay: flow cytometry (Table 6); ProteinL-FITC detection; binding assay 2
Method: (§1) 100 μl of the cell suspension per well (correspond to 2×10⁵ cells/well) were transferred to a round bottom 96-well microtiter plate. […] The cells were centrifuged for 1 min at 1500 rpm and the supernatant was discarded. […] After incubation, 100 μl FACS buffer were added to each sample, the cells were centrifuged for 1 min at 1500 rpm and the supernatant was discarded. The washing step with FACS buffer was repeated twice. Finally, the cells were resuspended in 100 μl FACS buffer and binding was determined using a BD FACS Array Bioanalyzer.
(§2) Antibodies marked with the same number (1 or 2) were tested in the same binding assay.

[7] = molecular target: T1, human claudin 18 splice variant 2 …; assay: flow cytometry on NUGC-4 10cE8 cells (endogenous CLDN18.2), second assay
[8] = molecular target: T1, human claudin 18 splice variant 2 …; assay: flow cytometry (Table 6); APC-conjugated secondary antibody; binding assay 1
Method: as §1, §2

[9] = molecular target: T1, human claudin 18 splice variant 2 …; assay: flow cytometry on NCI-N87~CLDN18.2 cells, antibody up to 20 µg/ml
Method: as §1

[10] = molecular target: T1, human claudin 18 splice variant 2 …; assay: flow cytometry, HEK293 cells stably expressing CLDN18.2; ProteinL-FITC detection; binding assay 4
[11] = molecular target: T1, human claudin 18 splice variant 2 …; assay: flow cytometry on HEK293~CLDN18.2 cells, antibody up to 20 µg/ml
Method: Binding was analyzed by flow cytometry at antibody concentrations up to 20 μg/ml. Data points (n=2 replicates) are depicted as mean±SD.
as §1
The binding specificity was analyzed by flow cytometry using HEK293 transfectants engineered to overexpress human CLDN18.2 or the highly homologous protein human CLDN18.1.

[12] = molecular target: T1, human claudin 18 splice variant 2 …; assay: flow cytometry, HEK293 cells stably expressing CLDN18.2; APC-conjugated secondary antibody; binding assay 3
Method: as §1

[13] = molecular target: T1, human claudin 18 splice variant 2 …; assay: flow cytometry, HEK293 cells stably expressing CLDN18.2; APC-conjugated secondary antibody; binding assay 2
[14] = molecular target: T1, human claudin 18 splice variant 2 …; assay: flow cytometry on BxPC-3~CLDN18.2 cells, antibody up to 20 µg/ml
Method: as §1

[15] = molecular target: T1, human claudin 18 splice variant 2 …; assay: cell-based or functional assay; remark: listed apart in the source
[16] = molecular target: T1, human claudin 18 splice variant 2 …; assay: flow cytometry (Table 6); ProteinL-FITC detection; binding assay 2; normalized to IMAB362

B1: IMAB362 (antibody, V domains shown)
VH: QVQLQQPGAELVRPGASVKLSCKASGYTFTSYWINWVKQRPGQGLEWIGNIYPSDSYTNYNQKFKDKATLTVDKSSSTAYMQLSSPTSEDSAVYYCTRSWRGNSFDYWGQGTTLTVSS
VL: DIVMTQSPSSLTVTAGEKVTMSCKSSQSLLNSGNQKNYLTWYQQKPGQPPKLLIYWASTRESGVPDRFTGSGSGTDFTLTISSVQAEDLAVYYCQNDYSYPFTFGSGTKLEIKR
notes: Chimeric human IgG1 kappa; CDR1 at 45-52); also called chim mAb362; chim mAB362
[1]
  EC50: 0.52 µg/mL
[2]
  Cell viability EC50 [ng/ml], Fab-ZAP endocytosis assay on HEK293~CLDN18.2 cells: 11 ng/mL
  Cell viability EC50 [ng/ml], Fab-ZAP endocytosis assay on HEK293~CLDN18.2 cells (second assay): 13 ng/mL
[3]
  ADCC EC50 [ng/ml], NUGC-4 10cF7_5 sort3a p3151#10 cells, PBMC of Donor 1: 1230 ng/mL
  ADCC EC50 [ng/ml], NUGC-4 10cF7_5 sort3a p3151#10 cells, PBMC of Donor 2: 142 ng/mL
[4]
  EC50: 2.38 µg/mL
[5]
  EC50: 0.113 µg/mL
[6]
  EC50: 1.24 µg/mL
[7]
  EC50: 3.67 µg/mL
[8]
  EC50: 0.584 µg/mL
  Max. binding [MFI]: 18500 MFI
[9]
  EC50: 0.31 µg/mL
[10]
  EC50: 1.24 µg/mL
  Max. binding [MFI]: 5320 MFI
[11]
  EC50: 1.12 µg/mL
[12]
  EC50: 0.652 µg/mL
  Max. binding [MFI]: 7950 MFI
[13]
  EC50: 0.584 µg/mL
[14]
  EC50: 0.104 µg/mL
[15]
  CDC EC50 [ng/ml], KATO-III FGF-BP#12 adM p3151#25 cells: 19300 ng/mL
  CDC EC50 [ng/ml], NUGC-4 10cF7_5 sort3a p3151#10 cells: 28000 ng/mL

B2: chim mAB294 (antibody, V domains shown)
VH: QIQLVQSGPELKKPGETVKISCKASGYTFTNYGMNWVKQAPGKGLKWMGWINTNTGEPTYAEEFKGRFAFSLETSASTAYLQINNLKNEDTATYFCARLGFGNAMDYWGQGTSVTVSS
VL: B1 VL with F102L, S106A, I112L
[2]
  Cell viability EC50 [%] normalized to IMAB362, Fab-ZAP endocytosis assay: 91%
  Cell viability EC50 [ng/ml], Fab-ZAP endocytosis assay on HEK293~CLDN18.2 cells: 10 ng/mL
  Max. viability reduction normalized [%], Fab-ZAP endocytosis assay: 86%
[6]
  EC50: 5.7 µg/mL
[16]
  EC50 normalized [%]: 459%

Reference: US20180117174A1 (GANYMED PHARMACEUTICALS, published 2018)
